The values that follow come from patent US20050181450A1 (published 2005).

The labels stand for the following.
B1: GST-Iab (GST fusion of amino acids 1-343 of mouse IP3R1) (receptor)
chain: not shown
notes: Expressed in Escherichia coli; not shown: glutathione S-transferase (GST) tag of vector pGEX-KG
B2: GST-IV (GST fusion of amino acids 1553-1943 of mouse IP3R1) (receptor)
chain: DLDSQVNNLFLKSHNIVQKTALNWRLSARNAARRDSVLAASRDYRNIIERLQDIVSALEDRLRPLVQAELSVLVDVLHRPELLFPENTDARRKCESGGFICKLIKHTKQLLEENEEKLCIKVLQTLREMMTKDRGYGEKQISIDESENAELPQAPEAENSTEQELEPSPPLRQLEDHKRGEALRQILVNRYYGNIRPSGRRESLTSFGNGPLSPGGPSKPGGGGGGPGSSSTSRGEMSLAEVQCHLDKEGASNLVIDLIMNASSDRVFHESILLAIALLEGGNTTIQHSFFCRLTEDKKSEKFFKVFYDRMKVAQQEIKATVTVNTSDLGNKKKDDEVDRDAPSRKKAKEPTTQITEEVRDQLLEASAATRKAFTTFRREADPDDHYQSGE
notes: as for B1
B3: GST-Ia (GST fusion of amino acids 1-225 of mouse IP3R1) (receptor)
chain: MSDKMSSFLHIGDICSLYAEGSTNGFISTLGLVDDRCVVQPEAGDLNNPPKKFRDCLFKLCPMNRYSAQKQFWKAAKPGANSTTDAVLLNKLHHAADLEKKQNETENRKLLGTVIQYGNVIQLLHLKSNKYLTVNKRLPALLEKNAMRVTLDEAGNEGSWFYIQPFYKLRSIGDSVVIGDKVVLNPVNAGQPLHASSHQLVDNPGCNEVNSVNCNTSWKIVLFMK
notes: as for B1
B4: IRBIT (IP3R-binding protein released with inositol 1,4,5-trisphosphate) in the high salt extract of mouse cerebellar crude microsome (other)
chain: SMPDAMPLPGVGEELKQAKEIEDAEKYSFMATVTKAPKKQIQFADDMQEFTKFPTKTGRRSLSRSISQSSTDSYSSAASYTDSSDDEVSPREKQQTNSKGSSNFCVKNIKQAEFGRREIEIAEQDMSALISLRKRAQGEKPLAGAKIVGCTHITAQTAVLIETLCALGAQCRWSACNIYSTQNEVAAALAEAGVAVFAWKGESEDDFWWCIDRCVNMDGWQANMILDDGGDLTHWVYKKYPNVFKKIRGIVEESVTGVHRLYQLSKAGKLCVPAMNVNDSVTKQKFDNLYCCRESILDGLKRTTDVMFGGKQVVVCGYGEVGKGCCAALKALGAIVYITEIDPICALQACMDGFRVVKLNEVIRQVDVVITCTGNKNVVTREHLDRMKNSCIVCNMGHSNTEIDVTSLRTPELTWERVRSQVDHVIWPDGKRVVLLAEGRLLNLSCSTVPTFVLSITATTQALALIELYNAPEGRYKQDVYLLPKKMDEYVASLHLPSFDAHLTELTDDQAKYLGLNKNGPFKPNYYRY
notes: Endogenous protein extracted with 500 mM NaCl from crude microsome of mouse cerebellum, not purified; sites not determined; also called IRBIT in the high salt extract
B5: K508A (site-directed mutant of GST-IbIIa, lysine 508 of IP3R1 substituted with alanine) (receptor)
chain: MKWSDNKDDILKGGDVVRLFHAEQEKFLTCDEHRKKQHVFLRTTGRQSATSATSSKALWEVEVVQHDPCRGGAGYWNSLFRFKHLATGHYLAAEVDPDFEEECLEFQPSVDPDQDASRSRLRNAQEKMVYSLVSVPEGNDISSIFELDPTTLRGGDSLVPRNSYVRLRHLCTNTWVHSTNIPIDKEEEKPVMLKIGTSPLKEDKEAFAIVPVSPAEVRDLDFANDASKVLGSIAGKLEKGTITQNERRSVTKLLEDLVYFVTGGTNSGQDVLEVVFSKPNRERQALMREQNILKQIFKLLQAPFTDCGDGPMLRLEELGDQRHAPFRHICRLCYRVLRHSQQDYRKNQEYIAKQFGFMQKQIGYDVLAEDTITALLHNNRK
notes: not shown: The GST carrier at the N end and its vector linker

Test [1] concerns the target B4. In words: GST pulldown from high salt extract, Western blot with anti-IRBIT antibody. The text has this:
(§1) FIG. 9A is the schematic representation of the structure of mouse IP₃R1 and the recombinant GST fusion proteins used in this study. The IP₃ binding core region is indicated with a gray box. Putative membrane-spanning regions are indicated with solid vertical bars. Roman numbers I to V indicate the domain structure of IP₃R1 determined by the limited trypsin digestion (51). Numbers above the bars represent corresponding amino acid residue numbers. […] The high salt extract of crude microsome obtained from mouse cerebella was incubated with GST fusion proteins shown in (A). Bound proteins were pulled down with glutathione-Sepharose, eluted with glutathione, and analyzed by Western blotting using anti-IRBIT antibody. […] Bound proteins were pulled down with glutathione-Sepharose, eluted with glutathione, and then analyzed by Western blotting using anti-IRBIT antibody (upper panel). GST fusion proteins pulled down with glutathione-Sepharose were stained with Coomassie Brilliant Blue (lower panel).
(§2) For the determination of the IRBIT binding region and the critical amino acid residue of IP₃R1, the diluted high salt extract was subjected to pulldown assay as described above with 100 pmol of GST, GST-EL, GST-Ia, GST-Iab, GST-IbIIa, GST-IIab, GST-IIbIIIa, GST-IIIab, GST-IV, GST-IV-Va, K508A or R441Q, and analyzed by Western blotting with anti-IRBIT antibody.

Test [2] addresses B4. In words: GST pulldown from the high salt extract, Western blot with anti-IRBIT antibody.
Description: as §1, §2
(In western blotting, separated proteins are transferred to a membrane and probed.)

For test [3], the target named is T1, GST-IIbIIIa (GST fusion of amino acids 600-1248 of mouse IP3R1) (mouse, UniProt P11881 600-1248).
T1 construct: Expressed in Escherichia coli; not shown: glutathione S-transferase (GST) tag of vector pGEX-KG
T1 sequence (P11881 600-1248): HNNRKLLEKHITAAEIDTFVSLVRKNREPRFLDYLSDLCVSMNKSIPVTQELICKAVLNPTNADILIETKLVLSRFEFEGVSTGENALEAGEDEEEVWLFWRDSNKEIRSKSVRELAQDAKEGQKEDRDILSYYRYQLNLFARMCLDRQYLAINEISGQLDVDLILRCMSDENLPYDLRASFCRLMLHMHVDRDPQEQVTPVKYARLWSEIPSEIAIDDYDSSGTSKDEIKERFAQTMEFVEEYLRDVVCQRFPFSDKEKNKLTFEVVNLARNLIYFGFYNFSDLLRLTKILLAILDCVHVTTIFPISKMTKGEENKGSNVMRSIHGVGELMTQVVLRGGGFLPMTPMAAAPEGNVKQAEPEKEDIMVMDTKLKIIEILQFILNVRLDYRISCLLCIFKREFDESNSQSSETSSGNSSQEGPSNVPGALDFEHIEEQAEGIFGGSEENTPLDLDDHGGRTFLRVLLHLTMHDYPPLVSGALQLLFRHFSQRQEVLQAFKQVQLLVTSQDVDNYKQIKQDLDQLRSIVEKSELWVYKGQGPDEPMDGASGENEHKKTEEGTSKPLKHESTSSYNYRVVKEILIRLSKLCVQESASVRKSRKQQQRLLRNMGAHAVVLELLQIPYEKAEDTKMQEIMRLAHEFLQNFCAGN
Described as above.
Description: as §1, §2

Test [4] deals with T2, GST-IIIab (GST fusion of amino acids 916-1581 of mouse IP3R1) (mouse, UniProt P11881 916-1581).
T2 construct: Expressed in Escherichia coli; not shown: glutathione S-transferase (GST) tag of vector pGEX-KG
T2 sequence (P11881 916-1581 N1264K): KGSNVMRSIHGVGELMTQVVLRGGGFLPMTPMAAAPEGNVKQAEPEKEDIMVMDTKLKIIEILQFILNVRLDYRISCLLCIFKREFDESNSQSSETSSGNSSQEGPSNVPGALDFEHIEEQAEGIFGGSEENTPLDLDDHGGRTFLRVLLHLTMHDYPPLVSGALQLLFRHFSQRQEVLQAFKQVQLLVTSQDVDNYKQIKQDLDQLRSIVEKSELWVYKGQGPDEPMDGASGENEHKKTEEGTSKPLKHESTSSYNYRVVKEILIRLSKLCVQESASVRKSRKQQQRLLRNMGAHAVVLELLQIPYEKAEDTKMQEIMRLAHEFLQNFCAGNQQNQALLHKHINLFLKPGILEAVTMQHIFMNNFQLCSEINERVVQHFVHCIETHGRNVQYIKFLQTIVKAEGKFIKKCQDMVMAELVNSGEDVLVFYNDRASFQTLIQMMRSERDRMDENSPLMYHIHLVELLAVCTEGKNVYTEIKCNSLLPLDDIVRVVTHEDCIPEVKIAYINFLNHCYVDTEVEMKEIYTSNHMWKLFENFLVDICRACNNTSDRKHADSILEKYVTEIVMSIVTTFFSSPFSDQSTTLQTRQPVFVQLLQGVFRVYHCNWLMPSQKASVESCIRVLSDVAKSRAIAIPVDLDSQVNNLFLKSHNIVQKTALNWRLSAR
The description is as above.
Description: as §1, §2

Test [5] has as its target T3, GST-IV-Va (GST fusion of amino acids 1593-2217 of mouse IP3R1) (mouse, UniProt P11881 1593-2217).
T3 construct: Expressed in Escherichia coli; not shown: glutathione S-transferase (GST) tag of vector pGEX-4T-1
The test is described as above.
Description: as §1, §2

Test [6] addresses T4, GST-IIab (GST fusion of amino acids 341-923 of mouse IP3R1) (mouse, UniProt P11881 341-923).
T4 construct: Expressed in Escherichia coli; not shown: glutathione S-transferase (GST) tag of vector pGEX-KG
In words: GST pulldown from high salt extract, Western blot with anti-IRBIT antibody.
Description: as §1, §2

Test [7] concerns the target GST-EL (GST-IP3R1 (1-2217), GST fusion of the N-terminal 2217 amino acid residues of mouse IP3R1) (mouse, UniProt P11881 1-2217). In words: cell-based or functional assay.

Sequence of GST-EL (GST-IP3R1 (1-2217), GST fusion of the N-terminal 2217 amino acid residues of mouse IP3R1) (P11881 1-2217 N1264K): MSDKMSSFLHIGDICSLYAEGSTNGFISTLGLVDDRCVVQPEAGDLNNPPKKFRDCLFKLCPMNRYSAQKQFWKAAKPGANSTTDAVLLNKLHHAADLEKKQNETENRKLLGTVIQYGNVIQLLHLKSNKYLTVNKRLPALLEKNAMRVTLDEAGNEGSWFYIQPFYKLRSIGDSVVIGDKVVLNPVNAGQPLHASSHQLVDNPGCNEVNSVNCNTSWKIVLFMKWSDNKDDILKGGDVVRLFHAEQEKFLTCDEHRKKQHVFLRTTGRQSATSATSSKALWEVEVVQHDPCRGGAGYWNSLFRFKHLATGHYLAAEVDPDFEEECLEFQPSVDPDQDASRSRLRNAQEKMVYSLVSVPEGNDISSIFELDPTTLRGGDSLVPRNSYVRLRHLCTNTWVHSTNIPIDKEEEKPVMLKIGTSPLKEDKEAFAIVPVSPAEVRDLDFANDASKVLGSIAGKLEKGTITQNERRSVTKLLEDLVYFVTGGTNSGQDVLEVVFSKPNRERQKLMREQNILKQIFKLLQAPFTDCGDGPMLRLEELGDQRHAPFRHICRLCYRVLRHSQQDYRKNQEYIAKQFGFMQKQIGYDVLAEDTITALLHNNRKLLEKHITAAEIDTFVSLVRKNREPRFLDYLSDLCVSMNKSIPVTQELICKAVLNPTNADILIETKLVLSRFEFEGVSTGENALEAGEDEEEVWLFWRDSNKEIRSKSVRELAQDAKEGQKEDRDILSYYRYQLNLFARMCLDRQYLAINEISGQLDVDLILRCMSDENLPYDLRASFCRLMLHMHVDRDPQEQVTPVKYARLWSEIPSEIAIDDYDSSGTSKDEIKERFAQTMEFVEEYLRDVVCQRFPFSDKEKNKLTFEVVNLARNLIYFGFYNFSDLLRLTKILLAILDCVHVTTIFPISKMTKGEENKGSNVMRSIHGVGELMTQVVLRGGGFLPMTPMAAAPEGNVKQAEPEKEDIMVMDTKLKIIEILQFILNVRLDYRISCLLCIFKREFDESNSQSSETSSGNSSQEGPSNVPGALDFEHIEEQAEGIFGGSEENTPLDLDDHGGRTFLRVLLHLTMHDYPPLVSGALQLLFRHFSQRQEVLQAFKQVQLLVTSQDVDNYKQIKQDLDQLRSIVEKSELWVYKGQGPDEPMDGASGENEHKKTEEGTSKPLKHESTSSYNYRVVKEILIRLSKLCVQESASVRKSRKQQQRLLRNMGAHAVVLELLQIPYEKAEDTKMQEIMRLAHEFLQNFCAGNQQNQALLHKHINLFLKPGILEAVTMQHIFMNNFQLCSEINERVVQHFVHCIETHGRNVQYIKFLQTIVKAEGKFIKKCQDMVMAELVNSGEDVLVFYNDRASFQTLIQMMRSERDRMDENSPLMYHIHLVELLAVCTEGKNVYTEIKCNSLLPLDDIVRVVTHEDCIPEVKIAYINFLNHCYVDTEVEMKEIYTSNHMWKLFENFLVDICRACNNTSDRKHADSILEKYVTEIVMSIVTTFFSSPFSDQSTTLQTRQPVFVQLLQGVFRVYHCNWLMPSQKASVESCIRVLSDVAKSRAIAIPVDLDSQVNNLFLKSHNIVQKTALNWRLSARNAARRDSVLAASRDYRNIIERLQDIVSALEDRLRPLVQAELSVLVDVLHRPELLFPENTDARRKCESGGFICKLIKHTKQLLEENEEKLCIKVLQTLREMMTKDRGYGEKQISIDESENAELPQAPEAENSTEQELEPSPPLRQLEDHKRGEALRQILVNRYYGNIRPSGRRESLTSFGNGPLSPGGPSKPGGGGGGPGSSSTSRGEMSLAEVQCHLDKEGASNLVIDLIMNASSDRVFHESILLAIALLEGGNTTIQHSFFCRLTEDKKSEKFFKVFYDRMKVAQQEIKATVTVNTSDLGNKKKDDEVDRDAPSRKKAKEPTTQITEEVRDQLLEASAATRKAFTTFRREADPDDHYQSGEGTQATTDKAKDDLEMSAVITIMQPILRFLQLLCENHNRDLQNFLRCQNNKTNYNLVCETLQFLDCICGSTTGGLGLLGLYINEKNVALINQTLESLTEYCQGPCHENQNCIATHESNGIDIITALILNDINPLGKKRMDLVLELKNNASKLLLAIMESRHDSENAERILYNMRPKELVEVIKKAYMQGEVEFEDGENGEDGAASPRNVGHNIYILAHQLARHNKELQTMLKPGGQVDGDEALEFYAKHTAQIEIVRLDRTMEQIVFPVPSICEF
T3 sequence (P11881 1593-2217): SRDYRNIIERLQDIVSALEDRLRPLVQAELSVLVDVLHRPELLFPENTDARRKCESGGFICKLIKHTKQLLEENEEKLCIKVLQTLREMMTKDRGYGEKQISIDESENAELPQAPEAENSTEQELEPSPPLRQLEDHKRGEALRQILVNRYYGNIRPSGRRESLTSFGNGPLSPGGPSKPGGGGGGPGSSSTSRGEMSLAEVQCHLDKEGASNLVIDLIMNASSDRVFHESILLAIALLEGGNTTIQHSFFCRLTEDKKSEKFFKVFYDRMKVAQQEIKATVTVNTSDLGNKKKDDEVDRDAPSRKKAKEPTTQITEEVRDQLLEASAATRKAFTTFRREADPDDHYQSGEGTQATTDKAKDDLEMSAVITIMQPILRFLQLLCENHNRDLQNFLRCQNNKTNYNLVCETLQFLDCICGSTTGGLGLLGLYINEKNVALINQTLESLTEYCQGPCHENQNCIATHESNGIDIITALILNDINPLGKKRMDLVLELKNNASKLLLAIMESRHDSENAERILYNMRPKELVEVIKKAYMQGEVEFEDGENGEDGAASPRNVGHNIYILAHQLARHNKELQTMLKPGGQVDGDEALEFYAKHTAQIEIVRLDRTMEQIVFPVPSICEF

Consider B1, for which the binding result in test [1] is “no binding (tested: 100 pmol of GST fusion protein)”.
With B2, the binding result in test [2] was “no binding (tested: 100 pmol GST fusion protein)”.
Take B3: the binding result in test [2] is “no binding (tested: 100 pmol GST fusion protein)”.
Take B4: the binding result in test [3] is on record as “no binding (tested: 100 pmol GST fusion protein)”; in test [4] it was “no binding (tested: 100 pmol GST fusion protein)”; in test [5], “no binding (tested: 100 pmol GST fusion protein)”; in test [6] it was “no binding (tested: 100 pmol of GST fusion protein)”. Besides, the “EC50 (IP3 concentration required for half (50%)-maximal dissociation of IRBIT from GST-EL)” value in test [7] is around 500 nM.
For the molecule B5, the binding result in test [1] is given as “no binding (tested: 100 pmol of GST fusion protein)”.
